Values of other authors in article PMC6222470.

Key:
[1] = target: histone H4 H4K20me2 peptide (Homo sapiens) (UniProt P62805)
[2] = target: histone H3 H3K36me3 peptide (Homo sapiens) (UniProt P68431)
[3] = target: histone H3.3K36me3 H3.3 peptide (Homo sapiens) (UniProt P84243)
[4] = target: histone H3 H3K14ac peptide (Homo sapiens) (UniProt P68431)
[5] = target: histone H3K14ac peptide H3 tail peptide (Homo sapiens) (UniProt P68431)

Sequence of ZMYND11 PHD-BD-ZnF-PWWP (Q15326 100-371): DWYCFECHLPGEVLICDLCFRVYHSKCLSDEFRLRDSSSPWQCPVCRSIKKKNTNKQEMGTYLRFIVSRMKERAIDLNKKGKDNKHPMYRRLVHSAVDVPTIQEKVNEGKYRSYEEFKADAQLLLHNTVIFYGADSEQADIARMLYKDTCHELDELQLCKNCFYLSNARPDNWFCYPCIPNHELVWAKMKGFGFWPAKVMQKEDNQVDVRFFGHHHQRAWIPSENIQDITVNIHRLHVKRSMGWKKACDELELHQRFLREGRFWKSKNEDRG
Sequence of 53BP1 TTD (Q12888 1484-1603): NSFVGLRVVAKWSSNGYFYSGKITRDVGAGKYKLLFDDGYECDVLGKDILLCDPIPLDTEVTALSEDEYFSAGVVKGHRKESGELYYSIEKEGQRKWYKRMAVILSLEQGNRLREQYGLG
Sequence of histone H3.3K36me3 H3.3 peptide (Homo sapiens) (P84243 20-43): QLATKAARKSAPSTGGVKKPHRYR
Sequence of PHF1 Tudor (O43189 26-89): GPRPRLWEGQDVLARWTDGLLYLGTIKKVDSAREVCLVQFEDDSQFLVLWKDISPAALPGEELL
Sequence of BRM BD (P51531 1378-1506): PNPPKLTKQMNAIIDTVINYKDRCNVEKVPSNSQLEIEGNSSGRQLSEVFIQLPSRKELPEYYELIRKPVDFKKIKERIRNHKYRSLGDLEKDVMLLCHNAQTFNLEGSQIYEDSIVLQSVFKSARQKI
Sequence of BRM BD BD (P51531 1378-1506): as above

In the case of 53BP1 TTD (from UniProt Q12888), the Kd [1] is given as 19.7 µM.
For PHF1 Tudor (from UniProt O43189), the Kd [2] is listed as 36 µM.
In the case of “ZMYND11 PHD-BD-ZnF-PWWP (from UniProt Q15326)”, the Kd [3] is given as 56 µM.
In the case of BRM BD (from UniProt P51531), the Kd [4] is given as 900 µM.
For BRM BD BD (from UniProt P51531), the Kd [5] is given as 900 µM.
